The values below come from PMC5405865.

The target in one assay is 70S ribosomes. Put plainly: NMR titration.
The target in assay [1] is The RNCs, denoted FLN5+L (with L = 21 to 110). In words: co-purification with the RNC, western blot. For orientation: In western blotting, separated proteins are transferred to a membrane and probed.

“FLN5∆12, 12-residue C-terminal truncation of isolated FLN5 (from UniProt P13466 646-738) (domain or fragment)” showed a reduction in resonance intensities with equimolar 70S ribosomes in the assay with 70S ribosomes of 30%. For the substance “FLN5 Y719E, isolated unfolded variant of FLN5 (from UniProt P13466 646-750) (domain or fragment)”, the reduction in resonance intensities with equimolar 70S ribosomes with 70S ribosomes was found to be 30%. As to “DnaK (from UniProt P0A6Y8 1-638) (natural protein)”, the occupancy of the purified RNCs in assay [1] is less than 1.5%.

Substance “trigger factor (from UniProt P0A850 1-432) (natural protein)” had an occupancy of the purified RNCs in assay [1] of less than 1.5%.
